Assay results taken from patent US20040248790A1, “Novel secretory proteins and dna thereof” (priority 2001, published 2004).
Where no end group is shown, it is not given here.

Key:
Format in all cases: cell-based
AQ27 [1] = target: T1, AQ27 (Homo sapiens, UniProt Q96P65); assay: CRE-luciferase reporter gene assay in HEK 293 cells transiently expressing AQ27 receptor; parameters: expressed in transfected cells; host or cells: HEK 293 cells, transient, vector pAKKO-111H, co-transfected with pCRE-Luc; conditions: pCRE-Luc reporter, peptide 10, 1 and 0.1 μM in Example 9, 4 hours
T1 sequence (Q96P65 1-431): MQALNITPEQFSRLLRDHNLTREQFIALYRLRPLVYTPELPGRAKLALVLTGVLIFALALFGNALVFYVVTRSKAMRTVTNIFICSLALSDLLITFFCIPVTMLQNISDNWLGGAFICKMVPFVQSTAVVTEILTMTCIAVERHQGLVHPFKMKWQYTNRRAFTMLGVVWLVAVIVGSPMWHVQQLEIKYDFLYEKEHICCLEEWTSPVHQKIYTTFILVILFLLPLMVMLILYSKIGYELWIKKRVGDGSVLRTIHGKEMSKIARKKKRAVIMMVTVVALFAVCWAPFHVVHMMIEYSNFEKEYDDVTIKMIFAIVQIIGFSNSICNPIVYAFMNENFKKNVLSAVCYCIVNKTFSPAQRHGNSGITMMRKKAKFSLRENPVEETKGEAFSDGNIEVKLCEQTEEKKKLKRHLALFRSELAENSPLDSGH
Description: (§1) The specific stimulating activity of novel polypeptides F synthesized in Example 8 on AQ27 receptor (SEQ ID NO: 31) and human OT7T022 receptor (SEQ ID NO: 35) was detected by using, as an indicator, the amount of a reporter gene product (luciferase) produced by induction of expression of a cAMP response element (CRE) promoter.
The HEK 293 cells were suspended in a growth medium (DMEM [Dulbecco's Modified Eagle Medium] (Gibco BRL) containing 10% fetal bovine serum (Gibco BRL)), and plated at a density of 1×10^5 cells/well on a black 96-well plate (Becton Dickinson Company, Ltd.) coated with collagen. After the cells were cultured overnight at 37° C. in 5% CO2, the cells were transfected in the following manner with a reporter gene-containing plasmid pCRE-Luc (Clontech) and simultaneously with an expression vector plasmid prepared by inserting AQ27 gene (SEQ ID NO: 32) and human OT7T022 gene (SEQ ID NO: 36) by a known method into an animal cell expression vector pAKKO-111H (the same plasmid vector as pAKKO-1.11H described in Biochem. Biophys. Acta, Hinuma, S. et al., 1219, 251-259, 1994) or with the intact pAKKO-111H not containing AQ27 gene.
OPTI-MEM-I (Gibco BRL) and Lipofectamine™ 2000 Reagent (Gibco BRL) were mixed in a ratio of 24:1 to prepare a Lipofectamine dilution. Separately, OPTI-MEM-I, AQ27 expression vector plasmid or the intact vector plasmid (240 ng/μl) and pCRE-Luc (240 ng/μl) were mixed in a ratio of 24:0.9:0.1 to prepare a DNA dilution. The Lipofectamine dilution and the DNA dilution were mixed in equal amounts and left for 20 minutes at room temperature, to form a DNA/Lipofectamine complex, and 25 μl of the complex was added to the plate where the HEK 293 cells were cultured, and the cells were further cultured overnight at 37° C. in 5% CO2.
(§2) The HEK 293 cells thus transfected were washed with an assay medium (DMEM containing 0.1% bovine serum albumin), and then each of novel polypeptides F synthesized in Example 8, diluted with the assay buffer, was added at concentrations of 10, 1 and 0.1 μM respectively to the cells which were then cultured at 37° C. in 5% CO2 for 4 hours. The culture supernatant was discarded, and 50 μl Pikka Gene LT2.0 (Toyo Ink Mfg. Co., Ltd.), that is, a substrate for measurement of luciferase activity, was added thereto, and the fluorescence of luciferase was measured with a plate reader (ARVO sx multilabel counter, Wallac).
First, full-length human novel secretory protein F gene (SEQ ID NO: 24) was introduced in a usual manner into an expression vector […]. […] The AQ27-specific activity was detected by using an indicator the amount of the reporter gene product (luciferase) produced by induction with expression of cAMP response element (CRE) promoter.

AQ27 [2] = target: T1, AQ27; assay: cAMP production-suppressing activity in AQ27-expressing CHO cells; parameters: expressed in transfected cells; host or cells: CHO cells; conditions: 2 μM forskolin; for cAMP production induced by FSK in AQ27-expressing CHO: 30 minutes at 37° C., 10^−7 to 10^−5 M peptide in Example 12
Experimental: (§3) AQ27-expressing CHO cells (FIG. 24) established by a method known per se and mock CHO cells (FIG. 25) serving as a control were plated on a 96-well plate (Becton Dickinson Company, Ltd.) at a density of 4×10^4 cells/well and cultured overnight. The assay buffer used was a buffer prepared by adding 0.1% bovine serum albumin and 0.2 mM 3-isobutyl-1-methylxanthine to a Hanks' balanced salt solution. The cells were washed twice with the assay buffer and pre-incubated at 37° C. for 30 minutes. The cells were washed again twice with the assay buffer, and a sample prepared in the assay buffer was added thereto, and the cells were incubated at 37° C. for 30 minutes. To evaluate the cAMP production-suppressing activity, a sample composed exclusively of 2 μM forskolin (FSK, Wako Pure Chemical Industries, Ltd.) promoting production of cAMP and a sample containing 2 μM FSK and 10^−7 to 10^−5 M novel polypeptide F: Arg-Lys-Lys-Gly-Gly-Phe-Ser-Phe-Arg-Phe-NH2 (positions 124 to 133 in SEQ ID NO: 23) were compared. A supernatant of the cells was discarded, and the amount of cAMP produced in the cells was measured by cAMP Screen System (Applied Biosystems).

AQ27 [3] = target: T1, AQ27; assay: Intracellular calcium ion release (FLIPR) in AQ27-expressing CHO cells; parameters: expressed in transfected cells; host or cells: CHO cells; conditions: for peptide concentration at which intracellular calcium ion mobilizing activity was recognized in CHO-AQ27: AQ27-expressing CHO cells; for activity in promoting intracellular calcium ion release in AQ27-expressing CHO cells: peptide 10 μM and 1 μM compared with absence of the sample, Fluo 3-AM
Experimental: AQ27-expressing CHO cells established by a method known per se were plated on a 96-well black culture plate (Costar) at a density of 4×10^4 cells/well and cultured overnight. The assay buffer used was a buffer prepared by adding 20 mM HEPES, pH 7.4 (Dojin Kagaku) and 2.5 mM probenecid (Sigma) to a Hanks' balanced salt solution (HBSS). The medium for the cells were removed, and a solution prepared by adding 4 μM Fluo 3-AM (Dojindo) and 0.04% pluronic acid (Molecular Probes) to the assay buffer was added thereto and incubated at 37° C. for 1 hour. The cells were washed with the assay buffer to remove an excess of Fluo 3 and set in FLIPR (Molecular Devices). A sample dissolved in the assay buffer was also set in FLIPR, and the sample was added to the cells by a built-in manipulator, and a change in fluorescence depending on the concentration of intracellular calcium ions generated by irradiation with an excitation light was measured. As a result, the reactions shown in FIGS. 26 and 27 were detected respectively in the presence of novel peptide F: Arg-Lys-Lys-Gly-Gly-Phe-Ser-Phe-Arg-Phe-NH2 (positions 124 to 133 (RKKGGFSFRF—NH2) in SEQ ID NO: 23) and novel polypeptide F: Gly-Gly-Phe-Ser-Phe-Arg-Phe-NH2 (positions 127 to 133 (GGFSFRF—NH2) in SEQ ID NO: 23) in an amount of 10 μM (▴) and 1 μM (□), as compared with the absence of the sample (◯), and the activity of each peptide in promoting intracellular calcium ion release in the AQ27-expressing CHO cells was detected.

mock CHO cells [4] = assay: cAMP production-suppressing activity in mock CHO cells (control); conditions: mock CHO cells as the control; forskolin
Experimental: as §3

mock CHO cells [5] = assay: Intracellular calcium ion change (FLIPR) in mock CHO cells (control); conditions: mock CHO cells as the control
human OT7T022 receptor = target: T2, human OT7T022 receptor (Homo sapiens, UniProt Q9GZQ6); assay: CRE-luciferase reporter gene assay in HEK 293 cells transiently expressing OT7T022 receptor; conditions: HEK 293 cells transiently expressing human OT7T022 receptor; pCRE-Luc reporter; peptide 10, 1 and 0.1 μM in Example 9
T2 construct: expressed in transfected cells; host or cells: HEK 293 cells, transient, vector pAKKO-111H, co-transfected with pCRE-Luc
Description: as §1
The HEK 293 cells were suspended in a growth medium (DMEM [Dulbecco's Modified Eagle Medium] (Gibco BRL) containing 10% fetal bovine serum (Gibco BRL)), and plated at a density of 1×10^5 cells/well on a black 96-well plate (Becton Dickinson Company, Ltd.) coated with collagen. […]
as §2

T2 sequence (Q9GZQ6 whole entry): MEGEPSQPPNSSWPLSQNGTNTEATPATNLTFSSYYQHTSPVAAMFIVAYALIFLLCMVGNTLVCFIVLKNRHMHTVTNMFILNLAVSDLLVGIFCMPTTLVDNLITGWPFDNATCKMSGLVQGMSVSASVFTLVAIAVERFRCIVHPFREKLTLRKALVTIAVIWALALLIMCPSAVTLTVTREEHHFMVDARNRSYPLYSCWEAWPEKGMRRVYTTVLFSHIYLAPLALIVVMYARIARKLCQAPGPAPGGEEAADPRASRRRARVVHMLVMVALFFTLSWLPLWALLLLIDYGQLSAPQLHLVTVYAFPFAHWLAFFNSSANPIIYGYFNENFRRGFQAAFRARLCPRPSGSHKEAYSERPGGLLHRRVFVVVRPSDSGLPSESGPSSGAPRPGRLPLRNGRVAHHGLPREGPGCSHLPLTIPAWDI

With “Ala-Ser-Gln-Pro-Gln-Ala-Leu-Leu-Val-Ile-Ala-Arg-Gly-Leu-Gln-Thr-Ser-Gly-Arg-Glu-His-Ala-Gly-Cys-Arg-Phe-NH2 (ASQPQALLVIARGLQTSGREHAGCRF-NH2) [A1-F28-NH2]” the “activity of luciferase stimulated by adding forskolin (FSK), AQ27 receptor” value (from here on “activity … AQ27 receptor”) (AQ27 [1]) was “increase in luciferase activity”, the “peptide concentration at which FSK-induced cAMP production was suppressed in AQ27-expressing CHO” value (AQ27 [2]; AQ27-expressing CHO cells) was “at least 10 M” and the “peptide concentration at which intracellular calcium ion mobilizing activity was recognized in CHO-AQ27” value (AQ27 [3]) was “at least 10^−6 M”. For the same substance, the “cAMP production-suppressing activity in mock CHO cells” value (mock CHO cells [4]) was “not recognized” and the “intracellular calcium ion mobilizing activity in mock CHO cells” value (mock CHO cells [5]) was “not recognized”.
With “Arg-Lys-Lys-Gly-Gly-Phe-Ser-Phe-Arg-Phe-NH2 (RKKGGFSFRF-NH2)” the “activity of luciferase stimulated by adding FSK, human OT7T022 receptor” value (human OT7T022 receptor) was “suppressing the luciferase activity”, the “activity … AQ27 receptor” value (AQ27 [1]) was “increasing the luciferase activity” and the “cAMP production induced by FSK in AQ27-expressing CHO” value (AQ27 [2]) was “suppressed”. The “activity in promoting intracellular calcium ion release in AQ27-expressing CHO cells” value (AQ27 [3]) was “detected”.
In the case of “Gly-Gly-Phe-Ser-Phe-Arg-Phe-NH2 (GGFSFRF-NH2)”, the “activity in promoting intracellular calcium ion release in AQ27-expressing CHO cells” value (AQ27 [3]) is reported as “detected”.
“Pyr-Asp-Glu-Gly-Ser-Glu-Ala-Thr-Gly-Phe-Leu-Pro-Ala-Ala-Gly-Glu-Lys-Thr-Ser-Gly-Pro-Leu -Gly-Asn-Leu-Ala-Glu-Glu-Leu-Asn-Gly-Tyr-Ser-Arg-Lys-Lys-Gly-Gly-Phe-Ser-Phe Arg-Phe-NH2 (QDEGSEATGFLPAAGEKTSGPLGNLAEELNGYSRKKGGFSFRF; N-terminal pyroglutamate, C-terminal amide; Human) [Pyr1-F43-NH2]” was tested, and the “activity … AQ27 receptor” value (AQ27 [1]) was “increase in luciferase activity”, the “cAMP production induced by FSK in AQ27-expressing CHO” value (AQ27 [2]) was “suppressed” and the “peptide concentration at which intracellular calcium ion mobilizing activity was recognized in CHO-AQ27” value (AQ27 [3]) was “at least 10^−8 M”. For the same substance, the “cAMP production-suppressing activity in mock CHO cells” value (mock CHO cells [4]) was “not recognized” and the “intracellular calcium ion mobilizing activity in mock CHO cells” value (mock CHO cells [5]) was “not recognized”.
“Thr-Ser-Gly-Pro-Leu-Gly-Asn-Leu-Ala-Glu-Glu-Leu-Asn-Gly-Tyr-Ser-Arg-Lys-Lys-Gly-Gly-Phe-Ser-Phe Arg-Phe-NH2 (TSGPLGNLAEELNGYSRKKGGFSFRF-NH2) [T1-F26-NH2]” was tested, and the “activity … AQ27 receptor” value (AQ27 [1]) was “increase in luciferase activity”.
